Source: the supplement of paper PMC10567573
± gives the standard deviation.

Test: protein stability index of a GFP-peptide fusion (GPS, HEK-293T) (PSI 1-6); higher = more stable
[1] = treatment: DMSO, c terminus: a fixed tail appended
[2] = treatment: MLN4924 1 uM, 8 h, c terminus: a fixed tail appended
[3] = treatment: DMSO, c terminus: native
[4] = treatment: MLN4924 1 uM, 8 h, c terminus: native
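Note: 24-mer peptide tiles fused after GFP, lentivirally expressed, FACS-sorted into six equal bins by GFP/DsRed ratio, decoded by Illumina sequencing, PSI is the read-weighted mean bin number.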

Sequence	protein stability index [1]	protein stability index [2]	protein stability index [3]	protein stability index [4]
VSISVVHGNLSEEAAKQMRSRGKV [CPOX]	3.37 ± 0.47	3.47 ± 0.52		
HHGGDYKHWREWGSHAQTSQIQSI [CRYBA1]	3.1 ± 0.14	3.19 ± 0.26		
IDVEALQVAFGSLYRDDVLIKPSR [GMCL1]	2.37 ± 0.16	2.48 ± 0.37		
AMGHSQDRLTTFQENQARTHVLSK [LRRC45]	4.7 ± 0.21	4.7 ± 0.28		
GLSAPHSRQIPAPQGAVLVQREKD [KISS1]	5.34 ± 0.19	5.19 ± 0.087		
KIGCGNFGELRLGKNLYTNEYVAI [CSNK1G1]	2.51 ± 0.54	2.12 ± 0.59		
HFAEEERSKYDYLMILRRVVNEST [TENT5C]	2.55 ± 0.26	2.86 ± 0.37		
VLEVRTENLKQQRSRREQFSRAPV [STX5]	3.4 ± 0.45	3.63 ± 0.41		
FMVVDLLLGGDLRYHLQQNVHFKE [STK32A]	2.8 ± 0.66	3.09 ± 0.78		
EFHPHHCNTFVYSSSKGTIRLCDM [PPP2R2B]	2.31 ± 0.29	2.15 ± 0.18		
SRETECSRVGKQSFIITLGCNSVL [CARM1]	2.3 ± 0.66	2.09 ± 0.38		
QPELPCAMAMGTPSTTERISTSGQ [PXN]	4.72 ± 0.12	4.9 ± 0.17		
FPYEYSYGLQGGMAFLDKRLQVKE [ATL3]	2.53 ± 0.1	2.69 ± 0.12		
ESEFDIEDEDKSEPEQTGADAAED [RBBP5]	5.73 ± 0.18	5.826 ± 0.029		
DALSSPTSVQEADETTRSDISERP [C2CD2L]	5.64 ± 0.35	5.61 ± 0.24		
LEGQDAKMIGFPSSAGSVSPRSTS [KRT13]	5.18 ± 0.16	5.152 ± 0.026		
LVVFAVLGFKANIMNEKCVVENAE [SLC6A17]	2.97 ± 0.32	2.82 ± 0.39		
KTFYKTADISQMLVCTADGDIHLS [TAF7L]	2.47 ± 0.19	2.41 ± 0.34		
IPSEEWPNPPTLQEAGLSHTEVLF [FAF2]	3.8 ± 0.23	3.81 ± 0.21		
KKNNIKLYVRRVFIMDSCDELIPE [HSP90AB1]		2.06 ± 0.65		
QLLLIKALQEKLWNVAAPLYLKQS [INTS4]	3.14 ± 0.31	2.89 ± 0.18		
VLFSVAGGLFVGKEGPMIHSGSVV [CLCN6]	2.58 ± 0.34	2.74 ± 0.5		
MGCHGFRDPFECNMCGYHSQDRYE [IKZF1]	3.2 ± 0.11	3 ± 0.3		

Sequence	protein stability index [1]	protein stability index [2]	protein stability index [3]	protein stability index [4]
LGTENLHLIFSYSVWVLRDFPEDG [VPS39]	2.94 ± 0.46	2.74 ± 0.7		
IKENAQDTMRQINKKGFWSYGPVI [TOR1AIP2]	2.51 ± 0.45	2.52 ± 0.26		
QPHLPLLSTLAGIRVMVHGRNHTP [SCNN1D]	2.52 ± 0.24	2.62 ± 0.26		
MSVGHLRLLSHDQVAMPYQWEYPY [JAGN1]	2.11 ± 0.29	2.02 ± 0.4		
VQTGLDQYQQVPVEIVKSDFHKPF [IQUB]	3.5 ± 0.22	3.52 ± 0.33		
DATWAAVAACTKEIDTQGRHLAHS [C10orf62]	4.04 ± 0.24	4.09 ± 0.39		
AGELRKPTQEEWRQVVDILWSDPM [PPEF2]	3 ± 0.53	2.97 ± 0.082		
IEETYSKAMAKLSKLASNGTPMGT [FCHO1]	3.4 ± 0.073	3.78 ± 0.29		
LHLAAQGRHAQTVETLLRHGAHIN [RIPK4]	2.4 ± 0.31	2.98 ± 0.51		
DCMAALGLAYDRKKVSKAAILARI [SCD]	1.94 ± 0.3	2.29 ± 0.2		
VLISNHVTPFDHNIVNLLTTCSTP [AUP1]	2.59 ± 0.66	2.48 ± 0.35		
QCGPQTGLQSPGTLQPPEFLYSHG [TBX5]	3.41 ± 0.25	3.37 ± 0.34		
QQESESEIDSVPKTQSELASESEH [MIA2]	5.44 ± 0.17	5.62 ± 0.15		
QVPVVDFQAELRQAFLAETPRGG [SNURF]			3.04 ± 0.46	3.19 ± 0.36
RWSRVGGQRFYSRVLSPLHRGPSG	2.9 ± 0.27	2.72 ± 0.42		
NAGLVWFFPWREAKPGSTEKGLPL [MFSD9]	2.23 ± 0.18	2.16 ± 0.29		
DAWSGSNAYHIERLMSFRPICSAN [CRYBA1]	2.46 ± 0.26	2.55 ± 0.26		
HRRELESSGAGSSPPAAPCPPPPG [ZBED3]	5.12 ± 0.29	5.24 ± 0.16		
TLNIKETDSKELSMAKEVIAKELS [ZBED1]	3.87 ± 0.086	4.13 ± 0.12		
QEIMEKYNIKLKWTNQQKLYSRTG [CFHR2]	2.45 ± 0.32	2.66 ± 0.35		
AVCKATTHEVMGPKKKHLDYLIQA [SNAP91]	3.06 ± 0.29	2.96 ± 0.14		
KGFSHLDVMLVECYDPKGDQWNIL [KLHL14]	2.82 ± 0.6	2.9 ± 0.68		
PSVCSENIHPQVLLPDQARGEVPW [ZNF263]	4.19 ± 0.22	4.34 ± 0.37		

Sequence	protein stability index [1]	protein stability index [2]	protein stability index [3]	protein stability index [4]
ALQAPHSPSKTDGKELAGTMDGEG [PBXIP1]	5.25 ± 0.25	5.34 ± 0.084		
NICHVWHMNVEALPEWISCLIQKA [RNF180]	2.01 ± 0.24	2.57 ± 0.38		
RKRAVPCGACLTQLFFFHLFVGVD [OR3A1]	2.82 ± 0.3	2.74 ± 0.45		
STNEITYGLPIMVTLMVAKWTGDF [CLCN6]	3.16 ± 0.38	3.03 ± 0.45		
LEGQSGVTIKHVACGDFFTACLTD [NEK8]	2.75 ± 0.28	2.89 ± 0.47		
MADCILVNSQFTAAVFKETFKSLS [ALG2]	2.66 ± 0.42	2.73 ± 0.55		
RNGHLATVKLLVEEKADVLARGPL [RIPK4]	3.1 ± 0.4	3.44 ± 0.19		
EPTAAATARRSKRERREEDRAPAE [PWWP2B]	5.7 ± 0.095	5.45 ± 0.14		
AALPPVPSPPAAPSVADNLLASSD [SERTAD1]	5.46 ± 0.14	5.35 ± 0.3		
GEGEPGQGEGPEAGDAEVCPTPAR [NOP53]	5.71 ± 0.2	5.67 ± 0.13		
DTWTLTEEHGLQQERPRPEPGRLG [PXN]	4.93 ± 0.34	4.92 ± 0.19		
QEYESIDPGQQFTWEHSNLEVNKP [PTPRD]	4.94 ± 0.1	4.93 ± 0.069		
ISDNSISWSAGLHNRYTENSLRGV [FUT8]	2.87 ± 0.29	2.87 ± 0.15		
FAYYKLNDVRQAARSAASYMLFDP [P3H4]	2.12 ± 0.22	2.14 ± 0.16		
LRQLVESDINSLRRILDELTLCRS [KRT33B]	2.31 ± 0.14	2.41 ± 0.15		
IDEVRTQYEEIALKSKAEAEALYQ [KRT71]	4.77 ± 0.29	5.01 ± 0.26		
PPPPYEAVVSQMDQEQGSSFQMSE [FAM189A2]	5.54 ± 0.27	5.43 ± 0.096		
YRWQGRRWEPSGKAEPRLPDRVYI [TBX6]	2.11 ± 0.26	2.22 ± 0.37		
SNYYVAHPPVTYSQPYPTWLPCN [TENT5C]			3.25 ± 0.19	3.44 ± 0.68
NMQQPMNVMTQSFGAVNLSSPSNM [CLINT1]	3.44 ± 0.17	3.66 ± 0.17		
AIEIFRYSFYMLTCIDMDWKVLTW [HACD3]	3.23 ± 0.4	2.57 ± 0.53		
TGIEESTDGMILGPEDLSYQIYDV [LARP4]	3.76 ± 0.28	3.6 ± 0.29		
LQCLQALYVDSLFFLRGRLDQLLR [PRAME]	2.09 ± 0.057	2.2 ± 0.61		

Sequence	protein stability index [1]	protein stability index [2]	protein stability index [3]	protein stability index [4]
AWKELDRNYLNYGEEGAPGKWQQQ [CHGB]	3.47 ± 0.43	3.75 ± 0.67		
KAPVQNEAPALGGGEYQEPGGNVK [BEX5]	5.48 ± 0.21	5.54 ± 0.26		
LAEYCVKTKAPAPDEGSDLFYDDY [CDC34]	4.12 ± 0.24	4.33 ± 0.41		
RFVFADRERKKLVLENLEDSCVLT [TRIB3]	3.18 ± 0.16	3.37 ± 0.17		
MMHDQRTGPAWNVLMWTMLFLGQG [SOAT2]	2.8 ± 0.93	2.65 ± 0.59		
QWFAMLRAEQDSEVGPQEINKEEL [GMCL1]	3.95 ± 0.43	3.81 ± 0.2		
QNIQSWSNHSWNTQTWCTQSWNNQ [NANOGP8]	2.53 ± 0.37	2.61 ± 0.24		
EAEKDGVKVPTTLAEYCIKTKVPS [UBE2R2]	5.08 ± 0.19	5.15 ± 0.2		
TDGERVAEVAPEERENVAVAKLQE [SDE2]	5.59 ± 0.34	5.49 ± 0.38		
YWKDTRTSGVVFTGLMVSLLCLLH [RTN2]	2.3 ± 0.24	2.2 ± 0.28		
MLKIHRSDPQLIVQLRFCGRQPCG [TRADD]	2.46 ± 0.73	1.92 ± 0.39		
HDIVRFLVQLDDYRFASAGDDGIV [WDR41]	2.21 ± 0.061	2.2 ± 0.25		
REVRQFQFTAWPDHGVPEHPTPFL [PTPRD]	2.76 ± 0.24	2.97 ± 0.38		
FAASLLTVFAWLLQYARGLWLARA [C2CD2L]	2.8 ± 0.49	2.54 ± 0.4		
LDTVELATYCVRTFALYKNGSSEK [PTPRD]	2.37 ± 0.042	2.55 ± 0.35		
RDLINCCYVSRRLSQLSSHDPLWR [FBXO3]	2.09 ± 0.28	2.31 ± 0.29		
DISIHHFTCDEENVFAAVGRGLYV [WDR41]	2.7 ± 0.35	2.61 ± 0.43		
ECVWNGSDSVIMTGSYNNFFRMFD [PPP2R2B]	2.23 ± 0.34	2.27 ± 0.39		
VEPKHCFTSPDYQQQCHEMAERLE [SDE2]	4.85 ± 0.21	4.83 ± 0.18		
MAGAATGSRTPGRSELVEGCGWRC [TRIM14]	3.46 ± 0.32	3.61 ± 0.26		
